Series [1] concerns the target in vitro translated [35S] TAp73α (UniProt O15350).
Series [2] addresses Purified recombinant ubiquitin containing an amino terminal FLAG sequence (UniProt P0CG48).
Series [3] addresses in vitro translated [35S] TAp73δ (UniProt O15350).
Series [4] concerns the target in vitro translated [35S] p53 (UniProt P04637).

With “GST-Itch MUT (C830A), Thr 277 to Glu 903”, the “in vitro ubiquitination (higher molecular weight [35S] species on SDS-PAGE)” value in series [1] was “this mutant, that retains the ability to bind TAp73 ... lost the ability to promote TAp73 ... ubiquitination”. Besides, the “ELISA for self-ubiquitination of Itch, OD450 signal” value in series [2] is “a background signal of 0.093 was obtained”.

With “GST-Itch, from Thr 277 to Glu 903 (lacking the N-terminal C2 domain)”, the “in vitro ubiquitination (higher molecular weight [35S] species on SDS-PAGE)” value was “protein was ubiquitinated, as shown by the appearance of discrete higher molecular weight” in series [1]; “The inability of Itch to ubiquitinate p738 and p53” in series [3]; “The inability of Itch to ubiquitinate p738 and p53” in series [4]. Besides, the “ELISA for self-ubiquitination of Itch, OD450 signal” value in series [2] is listed as “an assay OD450 signal of 1.972 was obtained”.

The record behind these values is patent publication US9051572.
